Results published in publication PMC10373542.

Biological target: SARS-CoV-2 WA-1 stabilized S trimer, HexaPro (SARS-CoV-2) (UniProt P0DTC2)
Experiment: BLI

CR3022 monoclonal antibody
fold increase of binding when S protein is bound to WRAIR-2063: 6 fold
